From PMC10201431, “SirA inhibits the essential DnaA:DnaD interaction to block helicase recruitment during Bacillus subtilis sporulation” (Nucleic Acids Research, 2022)
Numbering of substitutions follows the chain as printed. Names may count otherwise. Values belong to the molecule of their own block, whether it stands above or below them.

Tests used:
[1] = molecular target: DnaD^L22A, purified recombinant (B. subtilis) (UniProt P39787); test: SEC-MALS; 20°C; 40 mM Tris-HCl pH 8, 500 mM NaCl, 1 mM EDTA, 20 mM imidazole, 2.5% glycerol; 100 μl injected
[2] = molecular target: the molecule itself; test: cross-linking; BS3, 250 nM protein, 500x molar excess BS3, 6 min at 20°C, 20 mM HEPES pH 7.2, 100 mM NaCl, 10 mM magnesium acetate; SDS-PAGE and anti-DnaD immunoblot
[3] = molecular target: the molecule itself; test: SEC-MALS; 20°C; 40 mM Tris-HCl pH 8, 500 mM NaCl, 1 mM EDTA, 20 mM imidazole, 2.5% glycerol; 100 μl injected

percent present as monomer [1]: > 50% | stoichiometry N [1]: 4
Molecule: DnaD^L22A, purified recombinant (from UniProt P39787 1-232) (natural protein)

B1: DnaD^F6A, purified recombinant (natural protein, B. subtilis, UniProt P39787 1-232, looked up)
chain: MKKQQAIDMQEQGTSTIPNLLLTHYKQLGLNETELILLLKIKMHLEKGSYFPTPNQLQEGMSISVEECTNRLRMFIQKGFLFIEECEDQNGIKFEKYSLQPLWGKLYEYIQLAQNQTQERKAEGEQKSLYTIFEEEFARPLSPLECETLAIWQDQDQHDAQLIKHALKEAVLSGKLSFRYIDRILFEWKKNGLKTVEQAKIHSQKFRRVQAKQNEPQKEYKRQVPFYNWLEQ
notes: DnaD, B. subtilis 168CA, with F6A; made from pSF17 by Quickchange; source: E. coli BL21(DE3)-pLysS, purified (HisTrap, SUMO protease digestion, reverse HisTrap)
stoichiometry N [2]: 2

B2: DnaD^K3A, purified recombinant (natural protein, B. subtilis, UniProt P39787 1-232, looked up)
chain: B1 chain with K3A, A6F
notes: DnaD, B. subtilis 168CA, with K3A; made from pSF17 by Quickchange; source: E. coli BL21(DE3)-pLysS, purified (HisTrap, SUMO protease digestion, reverse HisTrap)
stoichiometry N [2]: 2

B3: DnaD, wild type, purified recombinant (natural protein, B. subtilis, UniProt P39787 1-232, looked up)
chain: B1 chain with A6F
notes: DnaD, B. subtilis 168CA; dnaD amplified from genomic DNA and cloned into pSF17; The printed theoretical mass of the tetramer (110 kDa) fits the whole protein; also called Wild-type DnaD; source: E. coli BL21(DE3)-pLysS, purified (HisTrap, SUMO protease digestion, reverse HisTrap)
stoichiometry N [3]: 4
